Source: US20070259402

Key:
[1] = biological target: proFIX-Fc (FIX-Fc retaining the FIX propeptide; dimer or monomer form not given)
[2] = biological target: N297A version of FIX-Fc retaining the propeptide
[3] = biological target: proFIX-Fc monomer-dimer hybrid (FIX-Fc monomer retaining the propeptide)

B1: PC7-SOL (soluble form of PC7, amino acids 1-663) (protein)
chain: LAGTGGPDGQGTGGPSWAVHLESLEGDGEEETLEQQADALAQAAGLVNAGRIGELQGHYLFVQPAGHRPALEVEAIRQQVEAVLAGHEAVRWHSEQRLLRRAKRSVHFNDPKYPQQWHLNNRRSPGRDINVTGVWERNVTGRGVTVVVVDDGVEHTIQDIAPNYSPEGSYDLNSNDPDPMPHPDVENGNHHGTRCAGEIAAVPNNSFCAVGVAYGSRIAGIRVLDGPLTDSMEAVAFNKHYQINDIYSCSWGPDDDGKTVDGPHQLGKAALQHGVIAGRQGFGSIFVVASGNGGQHNDNCNYDGYANSIYTVTIGAVDEEGRMPFYAEECASMLAVTFSGGDKMLRSIVTTDWDLQKGTGCTEGHTGTSAAAPLAAGMIALMLQVRPCLTWRDVQHIIVFTATRYEDRRAEWVTNEAGFSHSHQHGFGLLNAWRLVNAAKIWTSVPYLASYVSPVLKENKAIPQSPRSLEVLWNVSRMDLEMSGLKTLEHVAVTVSITHPRRGSLELKLFCPSGMMSLIGAPRSMDSDPNGFNDWTFSTVRCWGERARGTYRLVIRDVGDESFQVGILRQWQLTLYGSVWSAVDIRDRQRLLESAMSGKYLHDDFALPCPPGLKIPEEDGYTITPN
Propeptide Processing (Western blotting), CHO, stable transfection [1]: does not fully process
Propeptide Processing (Western blotting), CHO, transient transfection [1]: processes
Propeptide Processing (Western blotting), HEK, transient transfection [1]: does not fully process
peptide mapping (tryptic digest, LC/MS) for the propeptide indicator peptide (PIP), CHO stable line [1]: ProFIX-Fc was also found in CHO FIX-Fc protein that was cotransfected with PC7, although possibly at lower levels as indicated in the UV trace
Propeptide Processing (Western blotting), HEK, stable transfection [2]: does not fully process

B2: human PC5 (PC5A), expressed from pSYN-PC5-003 (protein)
chain: RVYTNHWAVKIAGGFPEANRIASKYGFINIGQIGALKDYYHFYHSRTIKRSVISSRGTHSFISMEPKVEWIQQQVVKKRTKRDYDFSRAQSTYFNDPKWPSMWYMHCSDNTHPCQSDMNIEGAWKRGYTGKNIVVTILDDGIERTHPDLMQNYDALASCDVNGNDLDPMPRYDASNENKHGTRCAGEVAAAANNSHCTVGIAFNAKIGGVRMLDGDVTDMVEAKSVSFNPQHVHIYSASWGPDDDGKTVDGPAPLTRQAFENGVRMGRRGLGSVFVWASGNGGRSKDHCSCDGYTNSIYTISISSTAESGKKPWYLEECSSTLATTYSSGESYDKKIITTDLRQRCTDNHTGTSASAPMAAGIIALALEANPFLTWRDVQHVIVRTSRAGHLNANDWKTNAAGFKVSHLYGFGLMDAEAMVMEAEKWTTVPRQHVCVESTDRQIKTIRPNSAVRSIYKASGCSDNPNRHVNYLEHVVVRITITHPRRGDLAIYLTSPSGTRSQLLANRLFDHSMEGFKNWEFMTIHCWGERAAGDWVLEVYDTPSQLRNFKTPGKLKEWSLVLYGTSVQPYSPTNEFPKVERFRYSRVEDPTDDYGTEDYAGPCDPECSEVGCDGPGPDHCNDCLHYYYKLKNNTRICVSSCPPGHYHADKKRCRKCAPNCESCFGSHGDQCMSCKYGYFLNEETNSCVTHCPDGSYQDTKKNLCRKCSENCKTCTEFHNCTECRDGLSLQGSRCSVSCEDGRYFNGQDCQPCHRFCATCAGAGADGCINCTEGYFMEDGRCVQSCSISYYFDHSSENGYKSCKKCDISCLTCNGPGFKNCTSCPSGYLLDLGMCQMGAICKDATEESWAEGGFCMLVKKNNLCQRKVLQQLCCKTCTFQG
peptide mapping (tryptic digest, LC/MS) for the propeptide indicator peptide (PIP), HEK stable line [3]: undetectable in purified FIX-Fc monomer cotransfected with PC5
Propeptide Processing (Western blotting), CHO, stable transfection [1]: processes
Propeptide Processing (Western blotting), CHO, transient transfection [1]: processes
Propeptide Processing (Western blotting), HEK, stable transfection [1]: processes
Propeptide Processing (Western blotting), HEK, transient transfection [1]: processes

B3: KEX2-SOL (soluble form of the yeast endoprotease KEX2, amino acids 1-675) (protein)
chain: LVSSQQIPLKDHTSRQYFAVESNETLSRLEEMHPNWKYEHDVRGLPNHYVFSKELLKLGKRSSLEELQGDNNDHILSVHDLFPRNDLFKRLPVPAPPMDSSLLPVKEAEDKLSINDPLFERQWHLVNPSFPGSDINVLDLWYNNITGAGVVAAIVDDGLDYENEDLKDNFCAEGSWDFNDNTNLPKPRLSDDYHGTRCAGEIAAKKGNNFCGVGVGYNAKISGIRILSGDITTEDEAASLIYGLDVNDIYSCSWGPADDGRHLQGPSDLVKKALVKGVTEGRDSKGAIYVFASGNGGTRGDNCNYDGYTNSIYSITIGAIDHKDLHPPYSEGCSAVMAVTYSSGSGEYIHSSDINGRCSNSHGGTSAAAPLAAGVYTLLLEANPNLTWRDVQYLSILSAVGLEKNADGDWRDSAMGKKYSHRYGFGKIDAHKLIEMSKTWENVNAQTWFYLPTLYVSQSTNSTEETLESVITISEKSLQDANFKRIEHVTVTVDIDTEIRGTTTVDLISPAGIISNLGVVRPRDVSSEGFKDWTFMSVAHWGENGVGDWKIKVKTTENGHRIDFHSWRLKLFGESIDSSKTETFVFGNDKEEVEPAATESTVSQYSASSTSISISATSTSSISIGVETSAIPQTTTASTDPDSDPNTPKKLSSPRQ
Propeptide Processing (Western blotting), CHO, transient transfection [1]: processes (cryptic cleavage)
Propeptide Processing (Western blotting), HEK, transient transfection [1]: does not fully process
propeptide processing, Fc and propeptide Western blots, HEK 293 transient transfection (FIG. 8 lane 4, N297A Fc) [2]: FIX-Fc cotransfected with KEX2-SOL is not processed, as can be seen by the presence of propeptide in this material (lanes 3 and 4, bands present on both blots)
